Article PMC10958042

B1: ATGL (PNPLA2, patatin-like phospholipase domain-containing protein 2), human, full length / G0S2 (G0/G1 switch protein 2), human (parent)
chain 1: MFPREKTWNISFAGCGFLGVYYVGVASCLREHAPFLVANATHIYGASAGALTATALVTGVCLGEAGAKFIEVSKEARKRFLGPLHPSFNLVKIIRSFLLKVLPADSHEHASGRLGISLTRVSDGENVIISHFNSKDELIQANVCSGFIPVYCGLIPPSLQGVRYVDGGISDNLPLYELKNTITVSPFSGESDICPQDSSTNIHELRVTNTSIQFNLRNLYRLSKALFPPEPLVLREMCKQGYRDGLRFLQRNGLLNRPNPLLALPPARPHGPEDKDQAVESAQAEDYSQLPGEDHILEHLPARLNEALLEACVEPTDLLTTLSNMLPVRLATAMMVPYTLPLESALSFTIRLLEWLPDVPEDIRWMKEQTGSICQYLVMRAKRKLGRHLPSRLPEQVELRRVQSLPSVPLSCAAYREALPGWMRNNLSLGDALAKWEECQRQLLLGLFCTNVAFPPEALRMRAPADPAPAPADPASPQHQLAGPAPLLSTPAPEARPVIGALGL
chain 2: METVQELIPLAKEMMAQKRKGKMVKLYVLGSVLALFGVVLGLMETVCSPFTAARRLRDQEAAVAELQAALERQALQKQALQEKGKQQDTVLGGRALSNRQHAS

Variants of: B1
Test: LUMIER: Protein A-ATGL variant and firefly luciferase-partner co-expressed in HEK293T, lysates immunoprecipitated on IgG-coated plates, co-precipitated partner measured as luciferase luminescence
Details: with G0S2 (G0/G1 switch protein 2), transient co-transfection, IgG-coated LUMITRAC plates, 2 h at 4 °C, three PBS washes, Bright-Glo luciferase reagent, triplicates per assay, two …, scale: log2 fold change of co-immunoprecipitated luminescence relative to wild-type ATGL within each experiment

Variant	screen value (parent: 0.26, not graded)	screen value (parent: 0.56, not graded)
chain 1 S158E	-0.0501	0.0613
chain 1 T41A	0.0368	0.0587
chain 1 V127L	0.199	0.376

Further lines, results first:

screen value (parent: 0.26, not graded)	screen value (parent: 0.56, not graded)	Variant
-2.09	-2.9	chain 1 V328A
-0.00445	-0.27	chain 1 Y415A
